Experiment: label from the status in PepcDB records

Row | Sequence | protein production
1 | MSLRRRFCAFLKGMQSPMIFDVKAPILGFETIHKMRLQKIDEIFLRLNSTEENSVVSFTLVNPFALRKYEFEVPTPLKILLELEGAKSVLVANIMVVQTPIELSTVNYLAPLIFNLDKQLMGQVVLDSNKYPHYHLRENILSHTHE | failed
2 | MSLRSKRVLVVEDNPDDIALIRRVLDRKDIHCQLEFVDNGAKALYQVQQAKYDLIILDIGLPIANGFEVMSAVRKPGANQHTPIVILTDNVSDDRAKQCMAAGASSVVDKSSNNVTDFYGRIYAIFSYWLTVNHCQEGHHHHHH | not failed
3 | MSLRTKGNAELILQIDAYLPDTYISDQRHKIEIYKKIRQIDNRVNYEELQEELIDRFGEYPDVVAYLLEIGLVKSYLDKVFVQRVERKDNKITIQFEKVTQRLFLAQDYFKALSVTNLKAGIAENKGLMELVFDVQNKKDYEILEGLLIFGESLLEIKESKEKNSEGHHHHHH | not failed
4 | MSLRTQLIAVLIDDYSNPWFIDLIQSLSDVLTPKGYRLSVIDSLTSQAGTDPITSALSMRPDGIIIAQDIPDFTVPDSLPPFVIAGTRITQASTHDSVANDDFRGAEIATKHLIDLGHTHIAHLRVGSGAGLRRFESFEATMRAHGLEPLSNDYLGPAVEHAGYTETLALLKEHPEVTAIFSSNDITAIGALGAARELGLRVPEDLSIIGYDNTPLAQTRLINLTTIDDNSIGVGYNAALLLLSMLDPEAPHPEIMHTLQPSLIERGTCAPREGHHHHHH | not failed
5 | MSLSDDPMASIKLLNLERENSAIAQYQSNIANLKTTLSSQETHLDSVSESLKSMRDIVLWGANGSLTDQDRSGMITELKSYRDSIESSFNAQDEEGHFLFSGTKTDTAALNKSSGAYVVEGNSDVRVVTVAKGVTMDSNMTAQEILDIGGGKNVLNQIDALIAEFEKPSPNFQAEVDASLNAIDDTMANVLGAMTEIGGRHNNLDLMDGAHSENKLFVDKVSGDLSALDYGEGHHHHHH | not failed
6 | MSLSEGTFEVGKNTFLLNGEPFVVKAAEIHYPRIPKEYWEHRIKMCKALGMNTICLYVFWNFHEPEEGRYDFAGQKDIAAFCRLAQENGMYVIVRPGPYVCAEWEMGGLPWWLLKKKDIKLREQDPYYMERVKLFLNEVGKQLADLQISKGGNIIMVQVENEYGAFGIDKPYISEIRDMVKQAGFTGVPLFQCDWNSNFENNALDDLLWTINFGTGANIDEQFKRLKELRPDTPLMCSEFWSGWFDHWGAKHETRSAEELVKGMKEMLDRNISFSLYMTHGGTSFGHWGGANFPNFSPTCTSYDYDAPINESGKVTPKYLEVRNLLGNYLPEGETLPEIPDSIPTIAIPTIKMTEMAVLFDNLPHPKESEDIRTMEAFDQGWGSILYRTSLSASDKEQTLLITEAHDWAQVFLNGKKLATLSRLKGEGVVKLPPLKEGDRLDILVEAMGRMNFGKGIYDWKGITEKVELQSDKGVELVKDWQVYTIPVDYSFARDKQYKQQENAENQPAYYRSTFNLNELGDTFLNMMNWSKGMVWVNGHAIGRYWEIGPQQTLYVPGCWLKKGENEIIILDMAGPSKAETEGLRQPILDVQRGNGAYAHRKMGEGHHHHHH | not failed
7 | MSLSEIKHWVFDMDGTLTIAVHDFAAIREALSIPAEDDILTHLAALPADESAAKHAWLLEHERDLAQGSRPAPGAVELVRELAGRGYRLGILTRNARELAHVTLEAIGLADCFAEADVLGRDEAPPKPHPGGLLKLAEAWDVSPSRMVMVGDYRFDLDCGRAAGTRTVLVNLPDNPWPELTDWHARDCAQLRDLLSA | not failed
8 | MSLSKKTIYIAGLGLIGGSLALGIKRDHPDYEILGYNRSDYSRNIALERGIVDRATGDFKEFAPLADVIILAVPIKQTMAYLKELADLDLKDNVIITDAGSTKREIVEAAERYLTGKNVQFVGSHPMAGSHKSGAIAADVTLFENAYYIFTPTSLTKETTIPELKDILSGLKSRYVEIDAAEHDRVTSQISHFPHLLASGLMEQAADYAQAHEMTNHFAAGGFRDMTRIAESEPGMWASILMTNGPAVLDRIEDFKKRLDHVADLIKAEDESAIWEFFDNGRKKRKEMEIHKKGGVESAFDIFVDVPDREGHHHHHH | not failed
9 | MSLSKPLFIFEMANNHMGNVEHGVALIRAIRESCQGFDFDFGFKLQYRNLDTFIHSSFKGRDDVKYVKRFEETRLQPEQMQKLVAEMKANGFKAICTPFDEESVDLIEAHGIEIIKIASCSFTDWPLLERIARSDKPVVASTAGARREDIDKVVSFMLHRGKDLTIMHCVAEYPTPDDHLHLARIKTLRQQYAGVRIGYSTHEDPDLMEPIMLAVAQGATVFEKHVGLPTDQYGINNYSANPEQVRRWLAAAARALAMLGDGEDDAVSETEQASLRSLRRGVFATRPVAAGEALTADNVSFAFPPVEGQLTANEWSKYVRYTAKTPIAADAPVMAADLEPVNEGHHHHHH | not failed
10 | MSLSKVFTIGEILVEIMASKIGQPFDQPGIWNGPYPSGAPAIFIDQVTRLGVPCGIISCVGNDGFGDINIHRLAADGVDIRGISVLPLEATGSAFVTYHNSGDRDFIFNIKNAACGKLSAQHVDENILKDCTHFHIMGSSLFSFHMVDAVKKAVTIVKANGGVISFDPNIRKEMLDIPEMRDALHFVLELTDIYMPSEGEVLLLSPHSTPERAIAGFLEEGVKEVIVKRGNQGASYYSANEQFHVESYPVEEVDPTGAGDCFGGAWIACRQLGFDAHRALQYANACGALAVTRRGPMEGTSRLMEIETFIQRHDMSIREAAQEGHHHHHH | not failed
11 | MSLSLWQQCLARLQDELPATEFSMWIRPLQAELSDNTLALYAPNRFVLDWVRDKYLNNINVLLNDFCGMDAPLLRFEVGSKPLVQTISQPAQSHHNPVSVARQQPVRMAPVRPSWDNSPVQAEHTYRSNVNPKHTFDNFVEGKSNQLARAAARQVADNPGGAYNPLFLYGGTGLGKTHLLHAVGNGIIARKPNAKVVYMHSERFVQDMVKALQNNAIEEFKRYYRSVDALLIDDIQFFANKERSQEEFFHTFNALLEGNQQIILTSDRYPKEINGVEDRLKSRFGWGLTVAIEPPELETRVAILMKKADENDIRLPGEVAFFIAKRLRSNVRELEGALNRVIANANFTGRSITIDFVREALRDLLALQEKLVTIDNIQKTVAEYYKIKIADLLSKRRSRSVARPRQMAMALAKELTNHSLPEIGDAFGGRDHTTVLHACRKIEQLREESHDIKEDFSNLIRTLSSLEHHHHHH | not failed
12 | MSLSNGELAILVFGYPETMANQVIAYFQEFGTILEDFEVLRKPQAMTVGLQDRQFVPIFSGNSWTKITYDNPASAVDALLENGAVFNGVLLGVIPYTKDAVERLQKRKLTSSEDIGSGITTAAAEGHHHHHH | not failed
13 | MSLSNVFYRSSKPYPVAVRGEGVFLYDDAGRRYLDGSSGALVANIGHGRAEVGERMAAQAARLPFVHGSQFSSDVLEEYAGRLARFVGLPTFRFWAVSGGSEATESAVKLARQYHVERGEPGRFKVITRVPSYHGASLGSLAASGMGARRELYTPLMRPEAWPKLPKPDPARNGAEDAEGLRALLEREGPETVAAFMAEPVVGASDAALAPAPGYYERVRDICDEAGIIFIADEVMSGMGRCGSPLALSRWSGVTPDIAVLGKGLAAGYAPLAGLLAAPQVYETVMGGSGAFMHGFTYAGHPVSVAAGLSVLDIVEREDLTGAAKERGAQLLAGLQALQARFPQMMQVRGTGLLLGVVLGDLATGQAFETPGIASRIGAAALKRGLITYPGSGAEPNGRGDHLLLGPPLSITAAEVDGLLALLAGALEDVLGEGHHHHHH | not failed
14 | MSLSPDLLLAFALFALVTSITPGPNNTMLLASGVNFGFNRSIPHILGISCGFFVLVLAVGLGLGAVFEAYPLLYSVLRYVGAVYLLYLAWKIARSGPLSDEQQHHGRPLGYWGAAAFQWVNPKAWVMAVGAISTYTPLQGYFTNVLVIAAVFALINAPTVSLWAACGSLLRNVLRNPRWLRLFNLLMAALLVLSLAPLLFEKMS | failed
15 | MSLSPSARRVQGALETRGFGHLKVVELPASTRTAKEAAQAVGAEVGQIVKSLVFVGEKGAYLFLVSGKNRLDLGKATRLVGGPLRQATPEEVRELTGFAIGGVPPVGHNTPLPAYLDEDLLGYPEVWAAGGTPRALFRATPKELLALTGAQVADLKEG | not failed
16 | MSLSRVTEIRYVGYGVKDFDAEKAFYADVWGLEPVGEDANNAWFKAQGADEHHVVQLRRADENRIDVIALAADSRSDVDALRASVEAAGCKVASEPAVLATPGGGYGFRFFSPDGLLFEVSSDVAKGAKRDLARWEGVPVKISHIVLHSPNHQDMVKFFTDVLGFKVSDWLGDFMCFLRCNSAHHRIAILPGPPCLNHVAYDMLSVDDMMRGAHRLKVKGIDIGWGPGRHTAGNNTFSYFVTPGGFVTEYTSELEEVDFDTHQYKVHVPAPMVMDQWGIGTGGPQTLPHPHANPGLFQTAEAEGHHHHHH | not failed

From a protein production outcome set (Wang et al. 2014)
